In the test the target is Human CD3 epsilon (CD3ε) of the T cell receptor complex on cells (human) (UniProt P07766). Put plainly: flow cytometry on Jurkat cells, 10 nM antibody. (In general: In flow cytometry, cells or beads pass a laser one at a time.)
Sequence of Human CD3 epsilon (CD3ε) of the T cell receptor complex on cells (human) (P07766 23-207 limits assumed, one chain of several): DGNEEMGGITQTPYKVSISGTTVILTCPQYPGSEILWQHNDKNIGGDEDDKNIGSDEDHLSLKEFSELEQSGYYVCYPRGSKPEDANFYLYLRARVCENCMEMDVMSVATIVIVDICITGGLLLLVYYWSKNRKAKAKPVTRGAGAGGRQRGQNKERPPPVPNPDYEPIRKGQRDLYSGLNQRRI

UCHT1 (antibody) returned an MFI (arbitrary units) of 89200.

For the origin of these results see patent US20220411504A1.
